Laboratory results: the supplement of paper PMC9170038

Tested on: MS2 coat protein
Assay: apparent KD of MS2 coat protein; designed switch direction (-1 OFF switch, 1 ON switch): -1; higher = weaker reporter binding
How it was run: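 An oligonucleotide input, 200 uM small-molecule ligand, or no input was present during titration of SNAP-549-labelled MS2 coat protein, which was doubled from 0.7 or 1.5 nM to 3 µM. Designed RNA switches had been transcribed on Illumina chips by stalled E. coli RNA polymerase. Apparent KD per design is the median over clusters of curves fitted to normalised cluster fluorescence.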

[1] = Eterna round: R95, input ligand: FMN 200 uM
[2] = Eterna round: R95, input ligand: microRNA oligo, concentration not stated
[3] = Eterna round: R95, input ligand: none
[4] = input ligand: microRNA oligo, concentration not stated

Sequence | apparent KD of MS2 coat protein (input ligand: FMN 200 uM) | apparent KD of MS2 coat protein (input ligand: none) | apparent KD of MS2 coat protein [1] | apparent KD of MS2 coat protein [2] | apparent KD of MS2 coat protein [3] | apparent KD of MS2 coat protein [4]
AUCCCUUGAGUAAGGAUAUGGCCAGGGAGGUCUGGCCAGAAGGUACAUGAGGAUCACCCAUGUAGGUUGUCGCA [Eternabot (L2) Solution 44] (Eterna round: R97, puzzle: Brourd's mod of Exclusion 4) | 56 nM | 20.6 nM |  |  |  | 
CCGCAAAUGCAGGAUAUCGUAUCGGAUACGAUACGAGAAGGGCGAACAUGAGGAUCACCCAUGUGUCCUAGCGG [Fiskers Ex 6 - 40] (puzzle: Exclusion 6) |  |  | 34.7 nM | 40.3 nM | 51.6 nM | 
GGAUCGAAUGUGAGGAUAUGCUGGUCCUUGGAUCAGCAGAAGGCACAUGAGGAUCACCCAUGUGAUCAAGAUCC [Eli bmx4 4.77] (Eterna round: R97, puzzle: Brourd's mod of Exclusion 4) | 58.3 nM | 910 nM |  |  |  | 
UAUAUAUAGUAAGGAUAUGUAUAUAUUUUAUGAACAGAAGGUACUGACAUGAGGAUCACCCAUGUUUUAGUGUGGGCAUGUAGA [JMF's solution 70] (Eterna round: R96, puzzle: Exclusion NG 1) | 49.4 nM | 64.8 nM |  |  |  | 38.8 nM
CAAAAGCUAGGAUAUCGUAAACAAGACAUGAGGAUCACCCAUGUGUCCGUGGCUGACCUCCGAGAAGGAGCAAUAU [Bilate] (puzzle: Exclusion 5) |  |  | 23.6 nM | 16.8 nM | 18.6 nM | 
CCAGCGUAUGUGAGGAUAUGCUGGUCCUUGGAUCAGCAGAAGGCACAUGAGGAUCACCCAUGUGGAGACGUUGG [JL bmx4 3.42] (puzzle: Brourd's mod of Exclusion 4) |  |  |  | 18 nM |  | 
AGGUCCUUCUGGACACAUGAGGAUCACCCAUGUGCGGUCAGCGAGGAUAUCGGUCUAUAAUGUGACGAGAAGGCGCGGACCGAU [Ex NG3 #60] (Eterna round: R96, puzzle: Exclusion NG 3) | 38.9 nM | 20.7 nM |  |  |  | 15.3 nM
ACAUGAGGAUCACCCAUGUAAUCAUAAUGGCUGAUGUAGAGUCAGGAUAUGUGUGGCUUACUAUCGCAGAAGGGACAAGACUGG [Deportation 33 - Jieux - Exclusion NG 3] (Eterna round: R96, puzzle: Exclusion NG 3) | 26.3 nM | 25.9 nM |  |  |  | 14.2 nM
GUCAGACGAGGAUAUAAAUUUGAUAACAUGAGGAUCACCCAUGUGAUCGAUAGAUCAAAUUUAGAAGGUGUCUGAC [E5/7-B3] (Eterna round: R97, puzzle: Exclusion 5) | 487 nM | 501 nM |  |  |  | 
ACAAGCUUUUUGUUCGUCUUAUAAAAUCCUAAGAGGAAAACAUGAGGAUCACCCAUGUAACAAAGACGGACUCAUGU [Sesor Array 12 - Jieux - Sensor v3, turn-off variant 2] (Eterna round: R96, puzzle: Sensor v3, turn-off variant 2) | 11.5 nM |  |  |  |  | 99.1 nM
ACCUCACAUGAGGAUCACCCAUGUCAGGAUAUCUAAUGUAGUCGCGUUCCCGACGCUAAGAGAAGGGACAUUAA [EX1 #34] (Eterna round: R97, puzzle: Exclusion 1) | 22.6 nM | 14.1 nM |  |  |  | 
GAAAACGCAAAGGAUAUUACAGAUCAAAGCUGCUGAGAAGGUUGCACAUGAGGAUCACCCAUGUGGUCUUUCAA [Mod of Quesina 18 - Jieux - Exclusion 6] (Eterna round: R97, puzzle: Exclusion 6) | 213 nM | 27.3 nM |  |  |  | 
UUCCUGUCAGGAUAUGACUAGAUGCACGAAAGUGUUUUUAGUUAGAAGGGACAUGAGGAUCACCCAUGUAGUCC [Bring Us a Shrubbery-19] (puzzle: Exclusion 4) |  |  |  | 21.9 nM |  | 
GUGUAAGGAGGAUAUACAUGAGGAUCACCCAUGUGAAUAAGAUAGAAUAAGAUAAAGUGUAGAAGGCUUAGUGU [Excluse me!!! 25 - Jieux - Exclusion 3] (puzzle: Exclusion 3) |  |  | 39 nM | 38.6 nM | 44.7 nM | 
AUAUAGUCAGGAUAUACAUGAGGAUCACCCAUGUGGUAGUAGAUACAGUAGAGAUAGAGUAGAAGGGACGAUGA [EX3 #24] (Eterna round: R97, puzzle: Exclusion 3) | 113 nM | 31 nM |  |  |  | 
GGUGCGUUUGUGAGGAUAUGCUGGUCCUUGGUUCGGCAGAAGGCACAUGAGGAUCACCCAUGUGGUGUCGUCCC [salish99_Bmod_Ex4_046] (puzzle: Brourd's mod of Exclusion 4) |  |  |  | 32 nM |  | 
UUAAAUCAUGUAGGAUAUGCGUUGCGAAGCGAUGCAGAAGGACAUGAGGAUCACCCAUGUGCUAGCGUCCGCGUACGGAUGCAA [Mat - Exclusion NG 1 - Mod of JL - D60] (Eterna round: R96, puzzle: Exclusion NG 1) | 172 nM | 52 nM |  |  |  | 65.3 nM

Sequence | apparent KD of MS2 coat protein (input ligand: FMN 200 uM) | apparent KD of MS2 coat protein (input ligand: none) | apparent KD of MS2 coat protein [1] | apparent KD of MS2 coat protein [2] | apparent KD of MS2 coat protein [3] | apparent KD of MS2 coat protein [4]
UGAUUCGGAGGAUAUACAUGAGGAUCACCCAUGUUACCGGAAGGUAGGAGAGGUCGCCGUAGAAGGCUGCACAU [Eternabot (Original) Solution 7] (Eterna round: R97, puzzle: Exclusion 3) | 30.4 nM | 31.5 nM |  |  |  | 
AUUCCUCCUGUGAGGAUAUGCGUUACGCACCCGUCGCAGAAGGCACAUGAGGAUCACCCAUGUGAGUUACCAAU [BmEX4 A.11] (Eterna round: R97, puzzle: Brourd's mod of Exclusion 4) | 166 nM | 18.9 nM |  |  |  | 
UUUUGGCAUGUAGGAUAUGGGUCCGAUUAGGAUUUAGAAGGACAUGAGGAUCACCCAUGUGCAUUUAAUUGGUCUUUUUUUUUU [EXclNG1-LROPPY15] (Eterna round: R96, puzzle: Exclusion NG 1) |  |  |  |  |  | 80 nM
AGAUGGCGAGGAUAUACAUGAGGAUCACCCAUGUGAAGAUAAAUAGUGAGGAAGAAAAGUAGAAGGCGCUGUCA [Mat - Exclusion 3 - Mod of Salish D27] (puzzle: Exclusion 3) |  |  |  | 58.6 nM |  | 
AGUCAGGCGGUAGGAUAUCCAAACCGAGUGACCCUUUCAUAACAUGAGGAUCACCCAUGUCGGUGGGAGAAGGGCCGUACGGCG [JL ViennaUCT Atra mod 2] (Eterna round: R96, puzzle: Exclusion NG 2) | 305 nM | 343 nM |  |  |  | 145 nM
UCACGCACUGUUAGGAUAUGUAUUAUGAAGGUAGUACAGAAGGAACAUGAGGAUCACCCAUGUAAUCCUGGGUG [Eternabot (L1) Solution 61] (Eterna round: R97, puzzle: Brourd's mod of Exclusion 4) | 726 nM | 93.1 nM |  |  |  | 
ACGAAGCUUUUUGCUCGUCACAUGAGGAUCACCCAUGUGGGCCCGGGCGCCCGGGCCGACAUCCCACUAGGACAUGU [#2] (Eterna round: R97, puzzle: Sensor, turn-off variant 1) | 104 nM | 122 nM |  |  |  | 
AGCUGUGGCCGAGGAUAUACAUGAGGAUCACCCAUGUUACAUAAUUAGGCCGGGUAACCGGCUCCGUAGAAGGCGGUCUCAGCA [Eli eng2 - 004] (Eterna round: R96, puzzle: Exclusion NG 2) | 14.3 nM | 13.7 nM |  |  |  | 11.7 nM
CGUUGGAAAGGAUAUACAUGAGGAUCACCCAUGUGAAAUUAUAGUGAGGAAAUGAAAAGUAGAAGGUUCUGACA [Mod of Mat 6 - Jieux - Exclusion 3] (Eterna round: R97, puzzle: Exclusion 3) | 61.2 nM | 25 nM |  |  |  | 
UAGUGGGUACGAAGGAGUAGUUUGAGCGUACGUUCUGUAACAUGAGGAUCACCCAUGUAGCUUUUUGCUCGACUUAU [JR_SV3TOV2_Sub037] (puzzle: Sensor v3, turn-off variant 2) |  |  | 28.9 nM | 55.7 nM | 29.4 nM | 
UGAGUAGAUCCGAAGGGAGACAUGAGGAUCACCCAUGUAUUAAGUUUUUAUGCUCGUCGCCUACGUAACCGUAGGAC [Eternabot (Original) Solution 2] (Eterna round: R97, puzzle: Sensor, turn-off variant 1) | 344 nM | 360 nM |  |  |  | 
CAUGGAACGUAGGAUAUCUCACAGCCAGGCUGCAGAGAAGGACGUACAUGAGGAUCACCCAUGUAUGAUCCAAA [Tius] (puzzle: Exclusion 6) |  |  | 26.9 nM | 15.5 nM | 17.5 nM | 
GAGGAUGUAGGAUAUACUUAGGGUGAGCUCUAAGUGAAUCAACAUGAGGAUCACCCAUGUAGAAGGGCAGGACG [Eternabot (Original) Solution 37] (Eterna round: R97, puzzle: Exclusion 2) | 248 nM | 122 nM |  |  |  | 
GCGGCGUAUGUAGGAUAUCGGUCAGUUUCUGAUCGAGAAGGACAUGAGGAUCACCCAUGUAAAUUACCGACUUUGUCGGGCCGC [JL ENG1 3.66] (Eterna round: R96, puzzle: Exclusion NG 1) | 20.4 nM | 17.7 nM |  |  |  | 13.5 nM
UCGUGUAUAGAGGAUAUAUUAUUUUUUAAAACAAUAGAAGGCUAAACAUGAGGAUCACCCAUGUAUUUGGUUUU [JR_Ex6_Sub053] (Eterna round: R97, puzzle: Exclusion 6) | 82.1 nM | 19.6 nM |  |  |  | 
ACAAGCUUUUAGAUUUUCAACAUGAGGAUCACCCAUGUUCGUCUUAUGCUAGUGCUAGUGCGGUGUACUGGUAUUGG [JL TOV1 3.79 sellena mod] (Eterna round: R97, puzzle: Sensor, turn-off variant 1) | 19.2 nM | 19.5 nM |  |  |  | 
